According to the domain aggregation screens of Martell et al. (2025):

Assay: soluble fraction after stress (log2 fold change); higher = more stays soluble; pooled small domains, quantitative proteomics
Conditions: stress: 75 degC
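Note: 20 min heating vs room temperature control held 20 min.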

Sequence	soluble fraction (log2)
HMTIELAEGQHFLQISKSGAPMGNVVRDLIIQTLKITNGNQIKAAKILGISRAKLRYRIEQLGINITGKNI	-2.81
HMYPNEFPRKVMSVFESSGLEMFRTIEMLLAIPEYETPLPYGSGVSRSDIFVLAKSAGNLVSITV	-0.117
HMVIMDLIVNGEPKYVVGEQLHLILDELGYSGKHFVVELNGEILSKEAYTTTKLTAADRLEIVSFVGG	-3.23
HMKDMWNRIRRARLSAGLSQAALAKETGVRRSAVTQWEKEGGTSPSVANLARIAVVTQVHFEWLATGRGPG	-2.76
HMSATQDAAIAVRIRDILSELDGYEDVTVTVTSGIVTMRGTTLDSEKIARLNDLTGRVEGVVAIENSVTET	-0.207
HMSDQTYVKDPETGEIFRVHKRVWETGEFWRDPVWGNILGGVERGSELERLLREEGWRPLQQSLEGFPEQ	-0.284
HMFPNLTNEEQQVMKVLAKTNDLQINMLSVQSNLPIARLTALLFSMEMKGVVKTLAGGVYHLL	-4.27
HMVFSNLGSRGEEVRQIQTKLKELGYLQGNVDGIYGNQTKQAVTAFQRDHGLSADGIAGEKTLAALGIG	0.636
HMDPYLSGLLQKLAETDKKISFTRLRSEDLDGESREAIYEFIEKYSGRFGVRWLLNEFGLSPSVYYNYLHS	-0.727
HMLTAPMPGTIQQILVTKGQKVRSGQTLMILEAMKMEHKIKAPNSGEIISINYSLGNRVEMGANLIEI	-2.1
HMEIHQVEFGGKVISFVLERKPVKNVNLHIKPDMTVMVSANEKVPLDFILGFVKQKAAWILKNIQFFEDV	-3.57
HMTNKKIILEIFQNSDKPLIVEEISKKMFEKTGKKMILSTIYRNLKNMEDVGILKKIYNEDGSYMYIF	-1.02
HMPKDMAKRASILTAASKLFVQHGYGGVSMDQIAAEAGVSKLTVYSHYGDKDSLFAAAVQAH	-0.617
HMSELSGSQLKAIREEKHIPLEQVASATRIRLSLLEALEMDEYAELGSRTQARGFLKLYADFLGVPFEA	-1.53
HMNPSFTMGTRIKEYIDAHYLEDLKLADIAEALHINLYYLSHTFKDLTGSSPMQYIIRRRIEE	-0.857
HMHTADDFKQLAKQTSNGQLRTRYLALYLFKNGETRTQIATYLGVARGSVNTWVSNYLAHGLEGLQSKP	-2.95
HMVEAIDQALIEKQIQAVLQENSAAVKKYQAGKTEVLAFLIGQSMRKIAKKVDANLVKNILLEQLKNK	0.228
HMKKVKVPNVVGMSLKEARDALSAVNIAVNQVAGSVEDKSVVTEQSLKAGDEVDEGSSLNLTTEYK	0.878
HMRQSSLRTRELLIDAARQLFARFGVEKTTMNDIAEASKRGRRTVYMYFNSKSDVFYAVVGRE	-0.0881
HMANVQLAKNLKTLRKKYNYTQQDVSTFLNITRQAYSHYEQALREPDLNTLVHLSRFYQVTLDELI	-4.33
HMSKQDRRIRRTRRLLKESLIQLMQEKEFMNISVREVTERADLNRGTFYLHYQDTRHLLQDIENETL	-3.3
HMSTKEFTIHAGEWSYRVSQKLENLGLVSDAKKFDQYLEDNGYSSKIKIGHYTISKDADFEEIAKEIT	0.632
HMAKMPSIIIMKDGVIRTSELEQIERDENWLNEEMKKQHIDNPEDVFLAEFWDGKVNFILQDGKIK	-0.0894
HMQNNKITIYISGAVNRPGIVTIESDKRLYDAVELLGGTTKEADLNGVNLSVRLEDEQHYIIPKIGEA	-0.432
HMASMNPVWLEFPNIPWGSAGWRMGWGEDYMRRWAKWYISLAEVERQSYKSDWPEPQEWEGFYAFMEHGT	-1.85
HMDLLAESLTRREAEVAALAARGLTNRAIAELFGLSVRTAETHLHRAMGKLGANRREDLLLHADRLDPG	-1.41

Sequence	soluble fraction (log2)
HMANGTVKWFNTTKGFGFIAPETGGKDVFVHISAVERSGLTGLADDQKVTFDVEAGRDGRESAVNLAL	0.0695
HMRPDDPYLVIGASREMGDEELKRHYRRLVAETHPDRGIARGLPAEAIAIATRRLAAINAAWDAIERERGL	0.000257
HMLQQKESAALGERLLNQALATLKVEPDAISWDRWEALAKEYGAKSQLDILADIGLGKRLSFVVAQALTKV	-1.25
HMNTISYTELIKQIDEGNVEKVEMTVGSTSVKVKLQGQEEEKKAIVPNTQAFVELIQEKTLEGNQIDLKQN	0.0122
HMLKFGLSQRELQILALLPTDEPLSILAKSLFISESTLKTHLTHIYRKLGVKNRLQAINVARKAGLLK	-1.59
HMKDGAKYFQLFGLLKNEINRGIYQSGQKIPGENELAEKYGMSRQTVRQALSLLEQESLIERRQGSGTYVR	-0.121
HMDQHERQQLLIHIAGGEREALAELYQRTRSAVYGLALSYLKNAHDAQDLTRDVYVQVWDRA	-0.0158
HMQALDETTVSRIRQKAAARNLLLKVLAGQLGVARPTLSNVLARREAPSAALAARIRAFLDSP	-1.45
HMTPGPYETLKPAPLGSYIEPKIGFATAIEIARKEAVQLGIKTEAGGIWYGGDFPFYNVSFFDPDD	-0.842
HMHQVHKIDGVKYYLHLVEKGNTLYGISKQYNVSVERIEKANTEALSDGLKENQTLLIPVTSDNKKT	-0.537
HMSPIKAGDLVKITGTKYYRGQTIPSWVKAKNWFVHSVSGDRAVINKSEDGKNAIMSPVKVSNLALVT	0.0902
HMSFDGFSDRLKSVLNSGKYTQKEAAEKINISEYSFTKYLNGRIPQTEILYKIARLYNKSMEWLLTGKDPI	-2.74
HMKEYPEVITTSRLNVRTGPGTGYQRLGTLDQNLRVLVLTRQQGWAQIRGMLNGETVIGWVNDYYLQAID	-2.54
HMIDNFFTIRFNYSKINEVIRLLKEFNGEIFNKNYDKNEYIIEFSIPKKDAALLISKLKNITGLTIEQ	-1
HMGRFAETVEHIVAAQLARRQGIPTMEQFASFFNVSRATFQRRLGEEGETLEQIKQRVRLRLALELLHP	-3.1
HMHTSEDLEKLLTRYFQSHESINRQQFEQLSGFTRTTASRRLKALVEAGKLKNIGLHHFPVYKPTEGNF	-0.485
HMQRSVEDVFVQLRNGMDTYDMTQIEDALRILHGMELSTAQRDLLDKVQEAYNDLEYETGAALLAGFERIK	0.134
HMRLADHVVEKLLALVQERGLQPGQKLPAERQLAEVLGVSRTSVREAIQKLVSQGVLSARRGDGTYVQS	-0.302
HMATARPPPPPESRVEVLFDGRWYAGTVVGGALDEHRATVFFDADRLSQVINFAETGIRVLGT	-0.123
HMQEERDISFIKIHLEPGHPWRGRALRELMPLKDLLIVMVVRGEDTIVPNGDTRLEEGDLLVLAAYPFEE	-0.834
HMNSKMTYSELVTNITNKEVESIKISSTGSTASVKLKNSKSEKEVNIPSLDSFMSYTEEYLKTGDFTLDEE	0.586
HMGNEMQVPNVAGKTVDEAIEIFNNMGLKVAAENKYAQSDDVKEGDVVKTDPSSGRNVKKGSEITLYISQG	0.375
HMQIYLTPEQFKIIDFMEQMGKITVKDVMDILNIPKRTAQLHLQKLKTLKMIAQTGKGPSSAYLL	-1.11
HMRKLTDRQRQILDLIKTIIAETGAPPTRAEISTALGFKSANAAQEHLQALAQKGMIDLVSGASRGIRLRG	-0.99
HMDGLIRLNKLLATLGVESRRHAEEMIIAGRITVDGVTATEKGQKVRRGAVIKVDGVEVGPPP	-0.581
HMEAGTEYVERAADYIRSHFQEDLTVSKLALYVGLNRSYLTTVFQNTLHVSPQQFLMRFRMERAAQLLD	0.0997

Sequence	soluble fraction (log2)
HMRIFDDNMIFPTEAEISAALKRLVMDLPKVGFLQGHGERAVDNVGERAYSMFTHANNFRYALINQGFVT	-0.029
HMGSKKAIPYVSGMSETEAQNELEEAGFKVTSSFQYDDSVESGKVISTTPEAGTKAEKGSTVTMLVSQGSN	0.0103
HMHDHKTRLQELAAQRFGSAPSYLLTADGPAHDRRFHASVEVGGRSFGPGTGKSKKRAEQVAAHIAWDALS	0.238
HMVKNYYEILEVDKKASPEVIEKAYKTLAKKYHPDLQEAENNGQYEEKMKEINEAYSVLSDEFKRRTYDEQ	0.123
HMGGEAEVLQSIDEGREVEVRSVAADGSAEVIYRGARWRARAAVGSLAAGRWTIGRVDGTELVLEK	-0.0609
HMRGVDRPLTLPRHWRRNAGRLVKVTLANGSAVTGRVLDPGEERVTLEVSGERHEVAYADVKKALVQVEF	-2.07
HMDDGLTRLTPRENEVLELMAQGRSNTAIAERLVLSYGAVEKNVSSIFTKLDLPLDAGDHRRVLAVLRRLN	-0.668
HMLDPKVFVGKAGINEGIAKLLLQAFDKADLVKVRFTAERDVMETQMQELARLTGSEVIGNVGRTATF	-0.0412
HMAAGADEATTVPNVSGDTLNQAIKSLKAEGLGYMLSGAGARVRDQMPEPGAEMTKGSVVMLYMDGDAEVD	-0.0497
HMSLTMPKLIGMHLFQAERTLNYYGFQYKVEGPDSASVVIDQYPKEGVTVDPHYPITLKIGPSA	-2.18
HMAKKDVESTLGGRLRVARVRAGLTQVELARMLGMNSVSLSNVEGGRRGLSMKQLVRVAKILEVPVAYLLG	-2.36
HMGDWEDFWEKEARRRKLSLDYQVVRSLSRWSREYDWGEEDVEQFLSQFPEGETVKMEDVELYFE	-1.18
HMKLNETIAEARKRKGLTQEQLAQKLYVTRQAVSRWERGEVVPGIDMLKLIAITLEEPIVHLL	-1.64
HMVDISLSDRELEVLRLLAMGLSNADISRRLYLSEGTIRNYMSGIFSKLNVSDRTQAVVIALREGLVNL	-1.56
HMSIAKIIGDRIRAYRNQKGWSQEYLAEKADVHHTYIGQLERGEKNATIESISKIAGALGVSLSRLFEN	-0.659
HMRKSLGEIVFDRMERAIKSGAYSPDERLPTELDLAAEFEVSRPVIRDALKRLRERGLIYSRQGAGSFVRA	-0.813
HMPETYVVFSKDGYANLRRGTTINSEILDVLDNGEYVTKLDEVGEWYRVEYADFDGGYIHKSQLKNI	-0.288
HMEKAKVPSVIGMTEANAKRTIRDAGFKVGRVTRVESEAYDKGKVIEQQYEAGSELEKKKPISIVVSKGKK	-0.108
HMDTVIAEVTASILNLRRSAGTSSDIIGKLNKGEKVSIIGGSGNWKNVRTSGGITGWVYHEYLSTY	-1.46
HMFTDEELEHIRSALIQAGIRLSKELGLQKMSVEKLTAAVGIAKGSFYMFFGSKEDFILEVAEYTGAQ	-0.976
HMVVKSPLEMAFDKFREMRKKIRKPMTERAEELIWKELSKLAGEDSDLKIEILEQSIRNGWQDVYAVK	-0.623
HMSLQNTMANFAGGVLVLFLKPFKAGDYIVTKDGEGTVASIGLVYTTLLTIENKRIVIPNSSISNSPITN	0.159
HMGAPVIYELTAESAAGQRIDKYLSGQLADLSRSYLQKLLKDGGVEVNKKPVKSNYKLSEGDQIRLEVPEA	0.0457
HMKPGYVIQVNGTVTKIQSGLVYVKTPAAQYTLMRKYAPADAAVGDRVSLWINEEGMVIDVHGK	-2.03
